Data on three molecules can be found in US20200247897A1 (Genmab, published 2020).

One assay addresses T1, murine DR5 (mouse (Mus musculus), UniProt Q9QZM4 53-381).
T1 construct: also called mouse DR5
The experiment in a line: flow cytometry on transfected CHO cells.

The target of assay [1] is T2, human DR5 (death receptor 5) on DR5-positive human colon cancer cells (human, UniProt O14763 56-440).
T2 construct: Endogenous receptor of the cell lines; also called CD262; TRAILR2
The experiment in a line: flow cytometry on HCT 116 cells.

The target in assay [2] is T3, cynomolgus monkey DR5 protein with deletion of amino acids 185-213 and death domain loss-of-function mutation … (cynomolgus monkey (Macaca fascicularis)).
T3 construct: also called Cyno DR5Mfdel-K420N
T3 chain: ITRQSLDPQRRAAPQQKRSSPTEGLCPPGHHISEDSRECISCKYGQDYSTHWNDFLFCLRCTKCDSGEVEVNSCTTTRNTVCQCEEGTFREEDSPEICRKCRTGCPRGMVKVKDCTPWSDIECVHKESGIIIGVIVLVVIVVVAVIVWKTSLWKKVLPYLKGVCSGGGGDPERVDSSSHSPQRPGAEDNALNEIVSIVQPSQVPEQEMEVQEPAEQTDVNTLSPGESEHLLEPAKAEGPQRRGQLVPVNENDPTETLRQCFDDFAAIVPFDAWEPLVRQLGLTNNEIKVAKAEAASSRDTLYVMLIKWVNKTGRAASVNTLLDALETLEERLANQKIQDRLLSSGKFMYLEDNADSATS
The experiment in a line: flow cytometry on cynomolgus DR5-transfected CHO cells; four experiments.

T1 sequence (Q9QZM4 53-381 limits assumed): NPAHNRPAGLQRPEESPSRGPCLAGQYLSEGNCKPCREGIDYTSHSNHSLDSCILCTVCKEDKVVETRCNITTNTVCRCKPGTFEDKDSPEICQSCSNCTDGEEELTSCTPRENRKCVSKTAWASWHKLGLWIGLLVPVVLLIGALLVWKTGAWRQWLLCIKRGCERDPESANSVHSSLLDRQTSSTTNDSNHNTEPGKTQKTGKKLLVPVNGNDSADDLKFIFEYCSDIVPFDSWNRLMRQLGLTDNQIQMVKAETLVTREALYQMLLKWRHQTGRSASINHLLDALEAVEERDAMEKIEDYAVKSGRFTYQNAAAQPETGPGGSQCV

B1: IgG1-hDR5-05-F405L (antibody, name in EU numbering)
heavy: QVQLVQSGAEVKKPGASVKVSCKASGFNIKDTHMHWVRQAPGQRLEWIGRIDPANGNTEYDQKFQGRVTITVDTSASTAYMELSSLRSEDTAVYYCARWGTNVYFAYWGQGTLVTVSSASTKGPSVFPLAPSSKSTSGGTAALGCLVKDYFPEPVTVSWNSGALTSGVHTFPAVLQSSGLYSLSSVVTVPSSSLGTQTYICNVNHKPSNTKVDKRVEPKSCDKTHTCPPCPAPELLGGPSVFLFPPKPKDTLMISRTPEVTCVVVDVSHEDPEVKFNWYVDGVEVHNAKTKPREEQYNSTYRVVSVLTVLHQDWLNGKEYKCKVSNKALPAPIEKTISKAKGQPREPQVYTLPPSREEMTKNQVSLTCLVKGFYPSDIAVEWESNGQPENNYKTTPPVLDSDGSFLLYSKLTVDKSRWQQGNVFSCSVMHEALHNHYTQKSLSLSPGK
light: DIQLTQSPSSLSASVGDRVTITCSASSSVSYMYWYQQKPGKAPKPWIYRTSNLASGVPSRFSGSGSGTDFTLTISSLQPEDFATYYCQQYHSYPPTFGGGTKVEIKRTVAAPSVFIFPPSDEQLKSGTASVVCLLNNFYPREAKVQWKVDNALQSGNSQESVTEQDSKDSTYSLSSTLTLSKADYEKHKVYACEVTHQGLSSPVTKSFNRGEC
notes: Expressed as IgG1,kappa; also called humanized DR5-05
For B1, the binding result with murine DR5 is recorded as “no binding (tested: 10 µg/mL)”.

B2: IgG1-hDR5-05-N55D-F405L (antibody, V domains shown)
VH: QVQLVQSGAEVKKPGASVKVSCKASGFNIKDTHMHWVRQAPGQRLEWIGRIDPADGNTEYDQKFQGRVTITVDTSASTAYMELSSLRSEDTAVYYCARWGTNVYFAYWGQGTLVTVSS
VL: DIQLTQSPSSLSASVGDRVTITCSASSSVSYMYWYQQKPGKAPKPWIYRTSNLASGVPSRFSGSGSGTDFTLTISSLQPEDFATYYCQQYHSYPPTFGGGTKVEIKR
In the case of B2, in assay [1], the binding result is “binds”.

B3: IgG1-hDR5-05-E430G (antibody)
heavy: not shown
light: B1 light
Take B3: in assay [2], the midpoint of the response, the EC50, lay at 0.17 µg/mL.
